Reference: publication PMC5352752, “Discovery and characterization of an F420-dependent glucose-6-phosphate dehydrogenase (Rh-FGD1) from Rhodococcus jostii RHA1” (Applied Microbiology and Biotechnology, 2016)

Biological target: the molecule itself
Assay: SEC; gel permeation analysis in solution, data not shown

B1: F420-dependent glucose-6-phosphate dehydrogenase Rh-FGD1 from Rhodococcus jostii RHA1 (enzyme, UniProt Q0RVH7 1-335, looked up)
chain: MVIKFGYKASAEQFGPRELVELGVLAEAHGMDSATVSDHFQPWRHEGGHAPFSLAWMTAVGERTSRLQLGTSVMTPTFRYNPAVVAQAFATMGCLYPGRIMLGVGTGEALNEIATGFAGEWPEFKERFARLREAVALMRELWLGDRVDFEGNYYKTVGASIYDVPEGGIPVYIAAGGPVVARYAGRSGDGFICTSGKGMELYTEKLMPAVAEGAEKADRDVAEIDKMIEIKISYDTDPELALENTRFWAPLSLTPEQKHSIDDPIEMERAADALPIEQVAKRWIVASDPDEAVAQIRPYLDAGLNHLVFHAPGHDQKRFLELFQRDLAPRLRGLA
notes: each monomer is comprised of residues 1-334; The native enzyme (tag cleaved) was used for crystallization; also called RHA1_RS43115; native Rh-FGD1; source: E. coli C41(DE3), purified (HisTrap, His-SUMO tag cleaved with SUMO protease, second HisTrap, Superdex 200); not shown: His6, N-terminal, cleaved; SUMO, N-terminal, cleaved
- stoichiometry N: 2
